Data: the nanobody polyreactivity screen of Harvey et al. (2022)

experiment: yeast display, Sf9 membrane polyspecificity reagent, FACS + sequencing; frameworks hold sequencing errors
How it was run: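 Nanobodies from a synthetic yeast display library (Saccharomyces cerevisiae BJ5465), induced 36–48 hours with galactose, were stained 1 hour at 4 °C with 10% biotinylated, detergent-solubilized Sf9 membrane reagent, enriched on streptavidin microbeads, then FACS-sorted. Anti-HA (expression) and streptavidin (reagent binding) fluorescence set low and high (top ~1%) gates. Polyreactivity labels come from the gate of origin. Genes were colony-PCR amplified, MiSeq 2 × 250 sequenced and filtered by CDR length.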

Sequence | polyreactivity (PSR sort gate)
QVQLVESGGGLVQAGGSLRLSCAASGIIFSTYAMGWYRQAPGKERELVAAITSTGSTNYADSVKGRFTISRDNAKNTVYLQMNSLKPEDTAVYYCAARYAGPSPTDTGHDYWGQGTQVTVSS | low polyreactivity
QVQLVESGGGLVQAGGSLRLSCAASGIIFSWYAMGWYRQAPGKERELVASITIGGNTNYADSVKGRFTISRDNAKNTVYLQMNSLKPEDTAVYYCAAQTFWYGYGGGDYWGEGTQVTVSS | low polyreactivity
QVQLVESGGGLVQAGGSLRLSCAASGIIFSWYAMGWYRQAPGKERELVATISGGGGSTYYADSVKGRFTISRDNAKNTVYLQMNSLKPEDTAVYYCAADYWNFNWRYKLYRPYDYWGQGTQVTVSS | high polyreactivity
QVQLVESGGGLVQAGGSLRLSCAASGIIFSYNAMGWYRQAPGKERELVAAINSSGGSTNYADSVKGRFTISRDNAKNTVYLQMNSLKPEDTAVYYCAARDATYYGVWRYYGIDDYWGQGTQVTVSS | low polyreactivity
QVQLVESGGGLVQAGGSLRLSCAASGIIFSYNAMGWYRQAPGKERELVAAITSIGGRTYYADSVKGRFTISRDNAKNTVYLKMNSLKPEDCAVYYCAVVAAFYNSPEGDYWGQGTQVTVSS | low polyreactivity
QVQLVESGGGLVQAGGSLRLSCAASGIIFSYYAMGWYIQAPGKERELVAVINSGGSTYYADSVKGRFTISRDNAKNTVYLQMNSLKPEDTAVYYCAATIFVKFYYWGQGTQVTVSS | low polyreactivity
QVQLVESGGGLVQAGGSLRLSCAASGIIFSYYAMGWYRQAPGKERELVAAISSSGVSTNYADSVKGRFTISRDNAKNTVYLQMNSLKPEDTAVYYCNGRGYYWYRPYVNSNGGYWGQGTQVTVSS | high polyreactivity
QVQLVESGGGLVQAGGSLRLSCAASGIIFSYYAMGWYRQAPGKERELVAAITWSVGSTDYADSVKGRFTISRDNAKNTVYLQMNSLKPEDTAVYYCAATITTLDWDDRYDYWGQGTQETVSS | low polyreactivity
QVQLVESGGGLVQAGGSLRLSCAASGIIFSYYTMGWYRPAPGKERELVAAISARGGRTYYADSVKGRFTISRDNAKNTVYLQMNSLKPEDTAVYYCAASWSTEYYWGQGTQVTVSS | high polyreactivity
QVQLVESGGGLVQAGGSLRLSCAASGIIFTDNAMGWYRQAPGKARELVATISWSTDNTYYADSVKGRFTISRDNAKNTVYLQMNSLKPEDTAVYYCAAGWQIIQGSQYDYWGQGTQVTVSS | low polyreactivity
QVQLVESGGGLVQAGGSLRLSCAASGIIFTDYAMGWYRQAPGTERELVAAISSGGGSTYYADSVKGRFTISRDNAKYSVYLQMNSLKPDDTAVYYGAAQSSGSYGFDHWGQGTQVTVSS | high polyreactivity
QVQLVESGGGLVQAGGSLRLSCAASGIIFTFNARGWDRQAPGKERELVASISITGDTYYADSVKGRFTISRDNAKNTVYLQMNSLKPEDTAVYYCAAEYYFYSRHWYISYDYWGQGTQVTVSS | low polyreactivity
QVQLVESGGGLVQAGGSLRLSCAASGIIFTFYGMGWYRQAPGKERELVAAIRTGGSTTYADSVKGRFTISRDNAKNTVYLQMNSLKPEDTAVYYCAAERYWVFHGTISYNYDYWGQGTQVTVSS | low polyreactivity
QVQLVESGGGLVQAGGSLRLSCAASGIIFTKYVMGWYRQAPGKERELVAAINTDGGSTRYADSVKGRFTISRDNAKNTVYLQMNSLIPEDTAVYYCNTVWFYGAKYDYWGQGTQVTVSS | high polyreactivity
QVQLVESGGGLVQAGGSLRLSCAASGIIFTPYNMGWYRQAPGKERELVAASTGSGGSTYYADSVKGRFTISRDNAKNTVDLQMNSLKPEDTAVYYCAAYKQYRFYRYDYWGQGTQVTVSS | high polyreactivity
QVQLVESGGGLVQAGGSLRLSCAASGIIFTVYAMGWYRQAPGKERELVAAITSSGGRTYYADSVKGRFTISRDNAKNTVYLQMNSLKPEDTAVYYCAASIWLYRYYYWGQGTQVTVSS | high polyreactivity
QVQLVESGGGLVQAGGSLRLSCAASGIIFTVYVMGWYRQAPGKERELVAGITFSTSSTYYADSVKGRFTISRDNAKNTVYLQMNSLKPEDTAVYYCNKDALQTAFDYWGQGTQVTVSS | low polyreactivity
QVQLVESGGGLVQAGGSLRLSCAASGIIFTWYAMGWYRQAPGKERELVAAISGSGDITYYADSVKGRFTSSRDNAKNTVYLQMNSLKPEDTAVYYCAADPWTYWEDYDYWGQGTQVTVSS | low polyreactivity
QVQLVESGGGLVQAGGSLRLSCAASGIIFTYYAMGWYRQAPGKERELVAAISYRGGSTYADSVKGRFTISRDNAKNTVSLQMNSLKPEDTAVYYCAAQRWYVYGQKYHYGYWGQGTQVTVSS | high polyreactivity
QVQLVESGGGLVQAGGSLRLSCAASGIIFVKNAMGWYRPAPGKERELVAAISDNADSTYYADSVKGRFTISRDNAKNTVYLQMNSLKPEDTAVYYCAADWVHRTWLFWYTKYDYWGQGTQVTVSS | low polyreactivity
QVQLVESGGGLVQAGGSLRLSCAASGIIFVKNAMGWYRQAPGKERELVAAISRSGARTYYADSVKGRFTISRDNEKNTVYLQMNSLKPEDTAVYYCNVYTRDRGYDYWGHGTQVTVSS | high polyreactivity
QVQLVESGGGLVQAGGSLRLSCAASGIIFVKNAMGWYRQAPGKERELVASISGSGGRTYYADSEKGRFTISRDNAKNTVYLQMNILKPEDTAVYYCNTLLAPHARKARRHDYWGQGTQVTVSS | low polyreactivity

Sequence | polyreactivity (PSR sort gate)
QVQLVESGGGLVQAGGSLRLSCAASGIIFVKYAMGWYRQAPGKERQLVAAITSGGSTYYADSVKGRFTISRDNAMYTVYLQMNSLKPEDTAVYYCNADSWFLYFFTINGYWGQGTQVTVSS | high polyreactivity
QVQLVESGGGLVQAGGSLRLSCAASGIIFVSYAMGWYRQAPGKERELVADITSGGRTYYADSVKGRFTISRDNAKNTVYLQMNSLKPEDTAVYYCAATYSYKGRWVWVYYWGQGTQVTVSS | high polyreactivity
QVQLVESGGGLVQAGGSLRLSCAASGIIFVSYDMGWYRQAPGKERELVAAINRGGRTYYADSVKGRFTISRDNAKNTDYLQMNSLKPEDTAVYYCAAQFHFRPFSWTYDYWGQGTQVTVSS | high polyreactivity
QVQLVESGGGLVQAGGSLRLSCAASGIIFVTNDMGWYRQAPGKERELVATITWSGGSTYYADSVKGRFTISRDTAKNTVYLQMNSLKPEDTAVYYCAAEKDAHKEDYWGQGSQVTVSS | low polyreactivity
QVQLVESGGGLVQAGGSLRLSCAASGIIFVVYAMGWYRQAPGKERELVAAISFRGGSTYYADSVKGRFTISRDNAKNTVYLQMNSLKPEDTAVYYCAARAFRHDGYDYWGQGTQVTVSS | low polyreactivity
QVQLVESGGGLVQAGGSLRLSCAASGIIFVYYAMGWYRQAPGKERELVAAISRSGGRTYYADSVKGRFTISRDNAKNTVYLQMNSLKPEDTAVYYCAAEVYKRYRYDYWGQGTQVTVSS | high polyreactivity
QVQLVESGGGLVQAGGSLRLSCAASGIIFVYYGKGWYRQAPGKERELVAAISWSGDDTYYADSVKGRFTISRDNAKNTVYLQMNSLKPEDTAVYYCAARPGYVHIDFDYWGQGSQVTVSS | low polyreactivity
QVQLVESGGGLVQAGGSLRLSCAASGIIFVYYVMGWYRQAPGKERELVASIDGSGGSTNYADSVKGRFTISRDNAKYTVYLQMNSLKPEDTAVYYCNADNILYWSTLDYWGQGTQVTVSS | low polyreactivity
QVQLVESGGGLVQAGGSLRLSCAASGIIFWDYAMGWYRQAPGKEREFVAAINTSGGTTTYADSVKGRFTISRDNAKNTVYLQMNSLKPEDTAVYNCAADPWGYYSYAYYYWGQGTQVTVSS | low polyreactivity
QVQLVESGGGLVQAGGSLRLSCAASGIIFWHYAMGRYIQAPGKERELVADISRRGGSTYYADSVKGRFTISRDNAKNTVYLQMNSLKPVDTAVYYCAARYHPGGYDSWGQGTQVTVSS | low polyreactivity
QVQLVESGGGLVQAGGSLRLSCAASGIIFWLYAMGWYRQAPGKERELVAAINWSGSTTYYADSVKGRFTISRDNAKNTVYLQMNSLKPEDTAVYYCAASRVRAYYYTSSLRRYYYWGQGTQVTVSS | high polyreactivity
QVQLVESGGGLVQAGGSLRLSCAASGIIFWLYTMGWYRQAPGKERELVAAITSGGSTYYADSVKGRFTISRDNAKNTVYIQMNSLKPEDTAVYYCAAVPRYRRGKYDYWGQGTQVTVSS | high polyreactivity
QVQLVESGGGLVQAGGSLRLSCAASGIIFWRYAMGWYRQAPGKERELVASISWSGGSTSYADSVKGRFTISRDNAKNTVYLQMNSLKPEDTSVYYCAAVYYYRRRYYYWGQGTQVTVSS | high polyreactivity
QVQLVESGGGLVQAGGSLRLSCAASGIIFWSYTMGWYRQAPGKEREFVASLRKSGGSTYYADSVKGRFTISRDNSKNTVYLQMNSLKPEDTAVYYCAAVYRRYLGGGYDYWGQGTQVTVSS | high polyreactivity
QVQLVESGGGLVQAGGSLRLSCAASGIIFWWYAMGGDRQAPGKERELVAAISGTGGSTYYADSVKGRFTISRDNAKNTVYLQMNTLKPEDTAVSYCPARGTSSSYYDYDYWGQGTQVTVSS | low polyreactivity
QVQLVESGGGLVQAGGSLRLSCAASGIIFWWYDMGWYRQAPGTERELVAAISTGSRTNYADSVKGRFTISRDNAKNTVYLQMNSLKPEDTAVYYCAAEWVGFSGYYGSGYEMDYWGQGTQVTVSS | low polyreactivity
QVQLVESGGGLVQAGGSLRLSCAASGIIFWYNAMGWYRQAPGKERELVAAITYSGGSTYYADSVKGRFTISRDNAKNTVYLQMNSLKPEDTAVYYCAADGYSRYASGGYEYWGQGTQVTVSS | low polyreactivity
QVQLVESGGGLVQAGGSLRLSCAASGIIFWYYAMGWYRQAPGKERELVAAISQSGGSTYYADSVKGRFTISRDNAKNTVYLQMNSMKPEDTAVDYCAAKPFYWSLEYDYRGQGTQVTVSS | high polyreactivity
QVQLVESGGGLVQAGGSLRLSCAASGIIFWYYAMGWYRQAPGKERELVAAISSGGGTNYADSVKGRFTISRDNAKNTVYLQMNSLKPEDTAVYYCNADDNPVWEYDYWGQGTQVTVSS | low polyreactivity
QVQLVESGGGLVQAGGSLRLSCAASGIIFYAYAMGWYRQAPGKERELVAAITFSAVSTYYADSVKGRFTISRDNAKNTVYLQMNSLKPEDTAVYYCAVDREWPGYYYAISKMYYWGQGTQVTVSS | low polyreactivity
QVQLVESGGGLVQAGGSLRLSCAASGIIFYDYAMGWYRQAPGKERELVAAISRSGGSTYYADSVKGRFTISRDNAKNTVYLQMNSLKPEDTAVYYCNADEVVWGYNYWGQGTQVTVSS | low polyreactivity
